This experiment has as its target actin purified from muscle acetone powder (ground beef); polymerised to F-actin (Bos taurus (ground beef)) (UniProt P68138). Nature of the experiment: co-sedimentation.

Values joined by “and” are separate entries in the source; they are usually repeats but may differ in a detail not shown here. Equal values may be shown once.

In general, Kd refers to the free concentration of one partner at which half of the binding sites on the other are occupied at equilibrium, for simple one-to-one binding. A lower Kd goes with higher affinity. Regarding “Lfat1 ABD [change], recombinant (from UniProt Q5ZVQ3 138-355) (domain or fragment)”, the Kd is 19.1 µM and 16.3 µM and 63.7 µM.

The values above are taken from doi:10.1101/2025.04.18.649563.
